Test results reported in patent publication US20220315663A1 (published 2022).

Molecular target: T1, cynomolgus monkey CD79b antigen (cynomolgus monkey)
T1 construct: also called cyno CD79b; CD9W1.001
Assay: SPR, cyno CD79b against human CD79b (refers to Table 32)

B1: C923B38 (trispecific antibody, human IgG1, kappa, L234A L235A)
heavy: QVQLQESGPGLVKPSETLSLTCSVSGASISSFYWSWIRQPADEGLEWIGRISPSGKTNYIPSLKSRIIMSLDASKNQFSLRLNSVTAADTAMYYCARGEYSGTYSYSFDVWGQGTMVTVSSASTKGPSVFPLAPSSKSTSGGTAALGCLVKDYFPEPVTVSWNSGALTSGVHTFPAVLQSSGLYSLSSVVTVPSSSLGTQTYICNVNHKPSNTKVDKKVEPKSCDKTHTCPPCPAPEAAGGPSVFLFPPKPKDTLMISRTPEVTCVVVSVSHEDPEVKFNWYVDGVEVHNAKTKPREEQYNSTYRVVSVLTVLHQDWLNGKEYKCKVSNKALPAPIEKTISKAKGQPREPQVYTLPPSREEMTKNQVSLSCAVKGFYPSDIAVEWESNGQPENNYKTTPPVLDSDGSFFLVSKLTVDKSRWQQGNVFSCSVMHEALHNRFTQKSLSLSPGK
light: DIVMTQSPLSLSVTPGEPASISCRSSESLLDSEDGNTYLDWFLQKPGQSPQLLIYTLSYRASGVPDRFSGSGSDTDFTLHISSLEAEDVGLYYCMQRMEFPLTFGQGTKVEIKRTVAAPSVFIFPPSDEQLKSGTASVVCLLNNFYPREAKVQWKVDNALQSGNSQESVTEQDSKDSTYSLSSTLTLSKADYEKHKVYACEVTHQGLSSPVTKSFNRGEC
chain: EIVLTQSPATLSASPGERVTLSCSASSSVSYMNWYQQKPGQAPRRWIYDSSKLASGVPARFSGSGSGRDYTLTISSLEPEDFAVYYCQQWSRNPPTFGGGTKVEIKGGSEGKSSGSGSESKSTGGSQVQLVQSGAEVKKPGSSVKVSCKASGYTFTRSTMHWVKQAPGQGLEWIGYINPSSAYTNYNQKFQGRVTLTADKSTSTAYMELSSLRSEDTAVYYCASPQVHYDYAGFPYWGQGTLVTVSSEPKSSDKTHTCPPCPAPEAAGGPSVFLFPPKPKDTLMISRTPEVTCVVVSVSHEDPEVKFNWYVDGVEVHNAKTKPREEQYNSTYRVVSVLTVLHQDWLNGKEYKCKVSNKALPAPIEKTISKAKGQPREPQVYTLPPSREEMTKNQVSLWCLVKGFYPSDIAVEWESNGQPENNYKTTPPVLDSDGSFFLYSKLTVDKSRWQQGNVFSCSVMHEALHNHYTQKSLSLSPGKGGSEGKSSGSGSESKSTGGSAIQLTQSPSSLSASVGDRVTITCRASSSVSYIHWFQQKPGKAPKPLIYATSNLASGVPSRFSGSGSGTDFTLTISSLQPEDFATYYCQQWTSNPPTFGQGTKLEIKGGSEGKSSGSGSESKSTGGSQVQLVQSGAEVKKPGSSVKVSCKASGYTFTSYNMHWVRQAPGQGLEWMGAIYPGNGDTSYAQKFQGRVTITADKSTSTAYMELSSLRSEDTAVYYCARSTYYGGDWYFNVWGQGTLVTVSS
notes: IgG1 trispecific: Fab to CD79b; second chain carries the CD3 scFv, the Fc and the CD20 scFv; also called CD79b×CD20×CD3 trispecific antibody
  fold weaker affinity compared to human: > 10000 fold
